# Test results taken from the nanobody polyreactivity screen of Harvey et al. (2022).
# Assay: yeast display, Sf9 membrane polyspecificity reagent, FACS + sequencing; frameworks hold sequencing errors
# Procedure, shortened: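 In a synthetic yeast display library (Saccharomyces cerevisiae BJ5465), nanobody expression was induced with galactose for 36–48 hours. FACS gates were set low and high (top ~1%) using anti-HA fluorescence for expression and streptavidin fluorescence for binding of the Sf9 membrane reagent. Each polyreactivity label is drawn from the gate of origin.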
row,Sequence,polyreactivity (PSR sort gate)
1,QVQLVESGGGLVQAGGSLRLSCAASGLTFGIYDMGWYRQAPGKERELVAGIRWSGGDSTYYADSVKGRFTNSRDNAKNTVYLQMNSLKPEDTAVYYCAARLYRWGGGLSRDKHGYWGQGTQVTVSS,low polyreactivity
2,QVQLVESGGGLVQAGGSLRLSCAASGRIFGAYAMGWYRQAPGKERELVAAISSRGGNTYYADSVKGRFTISRDNAKNTVYLQMNSLKPEDTAVYYCAARHDKRRQYYVGQSDFDYWGQGTQVTVSS,low polyreactivity
3,QVQLVESGGGLVQAGGSLRLSCAASGSTFFSYAMGWYRQAPGKERELVAAITSNGGTTHYADSVKGRFTISRDNAKNTVYLQMNSLKPEDTADYYCAKAQGHVRGSRGLQGGRYDYWGQGTQVTVSS,low polyreactivity
4,QVQLVESGGGLVQAGGSLRLSCAASGLTFYQYAMGWYRQATGKETELVAAITSAGITYADSVKGRFTISRDNAKNTVYLQMNSLKPEDTAVYYCAKDDYFSYGYVEFDYWGQGTQVTVSS,low polyreactivity
5,QVQLVESGGGLVQAGGSLRLSCAASGGIFYDYAMGWYRQAPGKERELVAAITRSGDSTYYADSVKGRFTISRDNPKNTVYLQMNSLKPEDTAVYYCAADIWSSDYEEFYYWGQGTQVTVSS,low polyreactivity
6,QVQLVESGGGLVQAGGSLSLSCAASGFIFPRYTMGWYRQAPGKERELVAAMTSSGGTNYADSVKGRFTISRDNAKNTVYLQMNSLKPEDTAVYYCAARRRTQQGYGGGYWGQGTQVTVSS,high polyreactivity
7,QVQLVETGGGLVQAGGSLRLSCAASGRIFWLYAMGWYRQAPGKERELVASISSGGTTHYADSVKGRFTISRDNAKNTVYLQMNSLKPEDTAVYYCAVRPYYSWAYYYWGQGTQVTLSS,high polyreactivity
8,QVQLVESGGGLVQAGGSLRLSCAASGRTFYRNAMGWYRQAPGKERELVGAISQSGGSTYYADSVKGRFKISRDNAKNTVYLQMNCLIPEDTAVYSCAAGKSRRVGMDYWGQGTQVTVSS,high polyreactivity
9,QVQLVESGGGLVQAGGSLRLSCAASGRTIPTYVMGWYRQAPGKERELVASIRSGGRTKYADSVKGRFTISRDNAKNTVYLQMNSLKPEDTAVYYCAADRRAYYYSFDYWGQGTQVTVSS,low polyreactivity
10,QVQLVESGGGLVQAGGSLRLSCAASGFIFPLYTMGWYRQAPGKERELVAAISVTGGSTYYADSVKGRFTISRDNAKNTVYLQMNSLKPEDTAVYYCNAYLFFLNRVWSFDYWGQGTQVTVSS,high polyreactivity
11,QVQLGESGGGLVQAGGSLRLSCSASMGWNSQAPGKERELVAITRTTRTYYADSVKGRFTISRDNAKNTVYLQMNSLKPEDTAVYYCAAPNGPSPYWYNYWGQGTQVTVSS,low polyreactivity
12,QVHLVESGGGLVQAGGSLRLTCAASGRTFPGYDMGWYRQAPGKERELVAAISWSGTSTYYADSVKGRFTISRDNSKNTVYLQMNSLIPEDTAVYYCAARVKGQWNTYEYWGQGTQVTVSS,high polyreactivity
13,QVQLVESGGGLVQAGGSHRLSCAASGSIFPSYAKGWYRQAPGKERELVATIGRGGTTNYADSVKGRFTISRDNAKNTVYLQMNSLKPEDTAVYYCNAERIWRYKYGYDYWGQGTQVTVSS,high polyreactivity
14,QVQLVESGGGLVQAGGSLRLSCAASGITLATNAMGLYRQAPGKERELVAAINSGGITKYADSVKGRFTISRDNEKNTVYLQMNSLKPEDTAVYYCAADLEPRTNAPGLPTPDGYYWGQGTQVTVSS,low polyreactivity
15,QVQLVESGGGIVQAGGSLRLLCAASGSIFLTNAMGWYRQAPGKERQFVAAIDWGGTITYYADSVKGRFTISRDNAKNNVYLQMNSLKPEDTAVYYCAADGYIRQYVTYYYWGQGTQVTVSS,low polyreactivity
16,QVQLEESGGGLVQAGGSLRLSCAASGLICVLYTMGSYRQAPGKERELVATINWGGGNTYYADSVKGRFTISRDNAKNTVYLQMNSLKPEDTAVYYCAAAYTWYGYSQAYYYWGQGTQVTVSS,low polyreactivity
17,QVQLVESGVGLDQARGSLRLSCAASGITFDDYAMGWYRQAPGKERELVAAISVSGGDTYYADSVKGRFTISRDNAKNTVYLQMNSLKPEDSAVYYCAAEEVSPRWYEYWGQGTQVTVSS,low polyreactivity
